Experiment: Differential scanning calorimetry (VP-DSC) of tetranectin trimerisation domain and deletion peptides
Type: physicochemical
Details: for TM if N is free: in °C
Protocol: A characterization of the thermal stability of the trimerisation domain of tetranectin was obtained using DSC, both of the full length trimerisation domain and of deletion mutants.
The DSC scans were conducted on a VP-DSC from MicroCal LLC (Northampton, Mass.). For most of the scans a PBS buffer containing 110 mM NaCl and 40 mM NaPO4 was used. The pH was 7.4. The scans were made from 10 to 110° C. under approximately 25 psi at a scan rate of 1° C./min and a pre-scan period of 20 minutes. At least two scans with buffer in both chambers were conducted before removal of buffer from both chambers and the filling with new buffer and protein/peptide solution to the reference and sample chamber respectively.
Peptides were synthesized by an outside vendor and were based on the tetranectin sequence, however, minor modifications were applied. In particular, the residue corresponding to Cys 50 was changed to a Serine. Also, residue number 28 is in native TN polymorphic, being either a Ser or an Ala. In the following experiments, Ala was selected. In addition, the N and C-terminal of the peptides were modified to remove charge and mimic natural peptides, increase stability toward digestion by aminopeptidases and block against synthetase activity. In the N-terminal deletion class peptides the N-terminal is acetylated and the C-terminal is prolonged with a β-Ala and a Cys. For the C-terminal deletion class peptides the modification are amidation of the C-terminal and all the sequences start with Cys-βAla.
Since these peptides were lyophilized from a TFA solution the pH of the redissolved peptides had to be adjusted. This was done using our micro-pH meter from Unisense. The pH was adjusted to the same mV value as found for the buffer by adding small portions of 0.2 M NaOH to the solution immediately followed by mixing. In order to prevent disulphide-bridge dimerisation and possible stabilization of the multimeric structures all scanning of peptides were conducted in 5 mM β-mercaptoethanol. Prior to scanning and addition of β-mercaptoethanol the sample and buffer were extensively degassed under vacuum while stirring.
Trip-A (SEQ ID NO:42) was scanned at concentrations ranging from 2 mM to 0.125 mM, by lowering the concentration by a factor 2. This corresponds to protein concentrations from 12.7 mg-ml to 0.80 mg/mL. […] The difference between the two-state model and the non-2-state model can be stated as that the non-2-state model contains a contribution to the unfolding energy from co-operative stabilization of subunits. This leads to a sharpening of the peak. The parameter introduced relative to the 2-state model is called the ΔHv, or the van't Hoff enthalpy. The ratio between ΔHv and ΔH can be taken as a measurement of the number of subunits in one unfolding unit. The result is shown on FIG. 13 and Table 6. The data is from one representative scan and fitted to the non-2-state model.
The “dissociation with dCp” model describes a system where unfolding and dissociation of a multisubunit protein is simultaneous. The data is from one representative scan and fitted to the “dissociation with dCp” model. The ΔHm and dCp value is per trimer.

[1] = Trip-A 0.125 mM, dissociation with dCp model
[2] = Trip-A 0.125 mM, dissociation with dCp model, per trimer
[3] = Trip-A 0.125 mM, non-2-state model, PBS pH 7.4
[4] = Trip-A 0.25 mM, dissociation with dCp model
[5] = Trip-A 0.25 mM, dissociation with dCp model, per trimer
[6] = Trip-A 0.25 mM, non-2-state model, PBS pH 7.4
[7] = Trip-A 0.5 mM, Down, first scan
[8] = Trip-A 0.5 mM, Down, first scan, per trimer
[9] = Trip-A 0.5 mM, Down, sec. scan, per trimer
[10] = Trip-A 0.5 mM, Up, first scan, per trimer
[11] = Trip-A 0.5 mM, Up, second scan, per trimer
[12] = Trip-A 0.5 mM, dissociation with dCp model
[13] = Trip-A 0.5 mM, dissociation with dCp model, per trimer
[14] = Trip-A 0.5 mM, non-2-state model, PBS pH 7.4
[15] = Trip-A 1.0 mM, dissociation with dCp model
[16] = Trip-A 1.0 mM, dissociation with dCp model, per trimer
[17] = Trip-A 1.0 mM, non-2-state model, PBS pH 7.4
[18] = Trip-A 2.0 mM, dissociation with dCp model
[19] = Trip-A 2.0 mM, dissociation with dCp model, per trimer
[20] = Trip-A 2.0 mM, non-2-state model, PBS pH 7.4

Substance: Trip-A: full length trimerisation domain of tetranectin (SEQ ID NO:42) (SPGTEPPTQKPKKIVNAKKDVVNTKMFEELKARLDTLSQEVALLKEQQALQTVSLKGS)
- Rev. (%) (Table 10, N-terminal deletion peptides, Conc per construct): 97.6%
- ΔHm (kJ/mol(trimer)) (Table 10, N-terminal deletion peptides, dissociation with dCp model, Conc per construct): 319.2 ± 0.4 kJ/mol(trimer)
- TM (° C.) (Table 10, N-terminal deletion peptides, dissociation with dCp model, PBS pH 7.4, Conc per construct 0.32-0.63 (column Conc)): 84.7 ± 0.1 °C
- dCp (kJ/molK) (Table 10, N-terminal deletion peptides, per trimer, Conc per construct): 0.7 ± 0.1 kJ/molK
- Rev. (%) (Table 11, C-terminal deletion peptides, Conc per construct): 97.6%
- ΔHm (kJ/mol(trimer)) (Table 11, C-terminal deletion peptides, dissociation with dCp model, Conc per construct): 319.2 ± 0.4 kJ/mol(trimer)
- TM (° C.) (Table 11, C-terminal deletion peptides, dissociation with dCp model, PBS pH 7.4, Conc per construct 0.4-0.63 (column Conc)): 84.7 ± 0.1 °C
- dCp (kJ/molK) (Table 11, C-terminal deletion peptides, per trimer, Conc per construct): 0.7 ± 0.1 kJ/molK
- Rev. (%) [1]: 98.9%
- TM (° C.) (N = 3) [1]: 82.2 ± 0.3 °C
- N (free) [1]: 1.88
- TM if N is free [1]: 78.9 ± 0.3
- dCp (kJ/molK) [2]: 2.4 ± 0.2 kJ/molK
- ΔHm [2]: 66.2 ± 0.454 kcal/mol
- Reversibility (%) [3]: 94.2%
- TM (° C.) [3]: 73.1 ± 0.03 °C
- ΔH [3]: 15.2 ± 0.048 kcal/mol
- ΔHv [3]: 42.52 ± 0.14 kcal/mol
- ΔHv/ΔH [3]: 2.8
- Rev. (%) [4]: 98.2%
- TM (° C.) (N = 3) [4]: 81.4 ± 0.1 °C
- N (free) [4]: 2.48
- TM if N is free [4]: 81.2 ± 0.1
- dCp (kJ/molK) [5]: 3.3 ± 0.1 kJ/molK
- ΔHm [5]: 68 ± 0.17 kcal/mol
- Reversibility (%) [6]: 95.6%
- TM (° C.) [6]: 75.9 ± 0.1 °C
- ΔH [6]: 12.7 ± 0.096 kcal/mol
- ΔHv [6]: 46.03 ± 0.406 kcal/mol
- ΔHv/ΔH [6]: 3.6
- Rev. (%) [7]: 68.9%
- TM (° C.) (Trip-A 0.5 mM, Down, first scan (refolding), dissociation with dCp model): 79.8 ± 0.1 °C
- N (free) [7]: 0.66
- TM if N is free [7]: 81.4 ± 0.4
- dCp (kJ/molK) [8]: 3.5 ± 0.1 kJ/molK
- ΔHm [8]: -59.51 ± 0.311 kcal/mol
- Rev. (%) (Trip-A 0.5 mM, Down, sec. scan): 85.6%
- TM (° C.) (Trip-A 0.5 mM, Down, sec. scan (refolding), dissociation with dCp model): 80.2 ± 0.2 °C
- N (free) (Trip-A 0.5 mM, Down, sec. scan): 1.45
- TM if N is free (Trip-A 0.5 mM, Down, sec. scan): 85.6 ± 0.3
- dCp (kJ/molK) [9]: 6.9 ± 0.1 kJ/molK
- ΔHm [9]: -40.99 ± 0.526 kcal/mol
- Rev. (%) (Trip-A 0.5 mM, Up, first scan): 94.2%
- N (free) (Trip-A 0.5 mM, Up, first scan): 2.13
- TM if N is free (Trip-A 0.5 mM, Up, first scan): 84.0 ± 0.1
- TM (° C.) (Trip-A 0.5 mM, Up, first scan, dissociation with dCp model): 82.3 ± 0.1 °C
- dCp (kJ/molK) [10]: 1.7 ± 0.1 kJ/molK
- ΔHm [10]: 68.91 ± 0.14 kcal/mol
- Rev. (%) (Trip-A 0.5 mM, Up, second scan): 94.0%
- N (free) (Trip-A 0.5 mM, Up, second scan): 3.7
- TM if N is free (Trip-A 0.5 mM, Up, second scan): 80.3 ± 0.1
- TM (° C.) (Trip-A 0.5 mM, Up, second scan, dissociation with dCp model): 81.7 ± 0.1 °C
- dCp (kJ/molK) [11]: 2.0 ± 0.1 kJ/molK
- ΔHm [11]: 64.89 ± 0.072 kcal/mol
- Rev. (%) [12]: 97.6%
- TM (° C.) (N = 3) [12]: 84.7 ± 0.1 °C
- N (free) [12]: 3.93
- TM if N is free [12]: 83.5 ± 0.1
- dCp (kJ/molK) [13]: 0.67 ± 0.01 kJ/molK
- ΔHm [13]: 76.29 ± 0.096 kcal/mol
- Reversibility (%) [14]: 94.1%
- TM (° C.) [14]: 81.4 ± 0.1 °C
- ΔH [14]: 11.6 ± 0.096 kcal/mol
- ΔHv [14]: 55.59 ± 0.574 kcal/mol
- ΔHv/ΔH [14]: 4.8
- Rev. (%) [15]: 97.6%
- TM (° C.) (N = 3) [15]: 83.2 ± 0.1 °C
- N (free) [15]: 2.21
- TM if N is free [15]: 86.0 ± 0.1
- dCp (kJ/molK) [16]: 0.58 ± 0.02 kJ/molK
- ΔHm [16]: 72.49 ± 0.14 kcal/mol
- Reversibility (%) [17]: 97.7%
- TM (° C.) [17]: 86.5 ± 0.1 °C
- ΔH [17]: 8.82 ± 0.14 kcal/mol
- ΔHv [17]: 65.06 ± 1.29 kcal/mol
- ΔHv/ΔH [17]: 7.4
- Rev. (%) [18]: 95.6%
- TM (° C.) (N = 3) [18]: 85.2 ± 0.4 °C
- N (free) [18]: 5.67
- TM if N is free [18]: 77.0 ± 0.5
- dCp (kJ/molK) [19]: −7.1 ± 0.5 kJ/molK
- ΔHm [19]: 91.9 ± 0.813 kcal/mol
- Reversibility (%) [20]: 105 (!) %
- TM (° C.) [20]: 90.4 ± 0.1 °C
- ΔH [20]: 7.74 ± 0.072 kcal/mol
- ΔHv [20]: 66.9 ± 0.837 kcal/mol
- ΔHv/ΔH [20]: 8.6
- Rev (%) (Trip-A, pH 3.0): 93.1%
- TM (° C.) (Trip-A, pH 3.0 (100 mM NaCl 25 mM NaPO4)): 84.6 ± 0.2 °C
- dCp (kJ/molK) (Trip-A, pH 3.0, per trimer): 11.9 ± 0.3 kJ/molK
- ΔHm (Trip-A, pH 3.0, per trimer): 71.2 ± 0.693 kcal/mol
- Rev (%) (Trip-A, pH 4.0): 88.1%
- TM (° C.) (Trip-A, pH 4.0 (100 mM NaCl 25 mM NaAcetat)): 82.6 ± 0.1 °C
- dCp (kJ/molK) (Trip-A, pH 4.0, per trimer): 0.12 ± 0.07 kJ/molK
- ΔHm (Trip-A, pH 4.0, per trimer): 70.29 ± 0.22 kcal/mol
- Rev (%) (Trip-A, pH 7.4): 97.6%
- TM (° C.) (Trip-A, pH 7.4): 84.7 ± 0.1 °C
- dCp (kJ/molK) (Trip-A, pH 7.4, per trimer): 0.67 ± 0.05 kJ/molK
- ΔHm (Trip-A, pH 7.4, per trimer): 76.29 ± 0.096 kcal/mol
- Tm values (across concentrations 0.125-2 mM, dissociation with dCp model): 81-85 °C
- ΔHm (across concentrations, dissociation with dCp model): approximately 300 kJ/mole
- stability to pH (scans at pH 3.0, 4.0 and 7.4): exhibits stability to pH

From US20100028995A1, “Tetranectin Trimerizing Polypeptides” (Anaphore, Inc., priority 2004, published 2010)
